From patent US20250297018A1, “IL-18BP ANTAGONIST ANTIBODIES AND THEIR USE IN MONOTHERAPY AND COMBINATION THERAPY IN THE TREATMENT OF CANCER” (Compugen Ltd., priority 2022, published 2025)

Experiments:
IL18 = molecular target: T1, IL18 (Homo sapiens, UniProt Q14116); settings: Kim et al., PNAS 2000; read-out: Dissociation constant (Kd) for IL18; cited from earlier work
T1 sequence (Q14116 37-193): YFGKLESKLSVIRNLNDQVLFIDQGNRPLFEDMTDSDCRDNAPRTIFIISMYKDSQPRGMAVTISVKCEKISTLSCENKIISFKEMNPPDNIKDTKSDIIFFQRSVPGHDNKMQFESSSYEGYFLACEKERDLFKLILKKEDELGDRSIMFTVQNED

[1] = MC38ova tumor-bearing mice treated with anti-mIL18BP or engineered mIL-18: weight, serum cytokines, spleen; type: in vivo, mouse; settings: spleens harvested 24 hours after the 4th treatment (IL-15: single dose), vs control
Protocol: Experiments were performed in C57Bl/6 (female, 6-8 wk, Envigo). Mice were anesthetized with 10% Ketamine and 10% Xylazine mixture injected intraperitoneal. Next, mice were inoculated with MC38ova cells (1.2×10^6) subcutaneously to the right flank in 50 μl/mice.
Spleens were harvested from mice 24 hours after the 4th treatment and weighed. For IL15 experiments, mice were treated with a single dose of 0.5 μg, 1.5 μg of IL15, or with a mix of 0.5 μg IL15 and 2.33 μg IL15R.

[2] = molecular target: T2, recombinant human IL18-BP (Homo sapiens, UniProt O95998); assay: CMV recall assay, IFNγ secretion by CMV-reactive T-cells; type: cell-based; settings: rhIL-18 30 ng/ml + rhIL-18BP 2 μg/ml; antibodies 10 μg/ml
T2 construct: purchased R&D systems 119-BP; host or cells: added to MEL624/PD-L1 + CMV-reactive T-cell culture
T2 sequence (O95998 31-194): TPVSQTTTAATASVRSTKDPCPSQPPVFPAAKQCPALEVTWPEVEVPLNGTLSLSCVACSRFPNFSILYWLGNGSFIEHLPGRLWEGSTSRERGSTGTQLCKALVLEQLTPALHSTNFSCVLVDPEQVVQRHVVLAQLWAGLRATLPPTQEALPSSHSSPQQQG
Protocol: Human MEL-624 overexpressing PD-L1 cells were thawed and loaded with CMV pp65 peptide (0.03 μg/ml). The cells were seeded at 100K/well in a 96 well plate and incubated for 30 minutes in 37° C., 5% CO2 incubator with a combination rhIL-18 (30 ng/ml, R&D systems, 9124-IL/CF) and rhIL-18BP-Fc chimeric protein ([…], R&D systems 119-BP) to allow IL-18+IL-18BP complex formation. After 30 minutes, anti-human IL-18BP (ADI-71722, anti-human PVRIG, anti-human TIGIT (anti-TIGIT), anti-human PD1 (Pembrolizumab) or relevant isotype control (hIgG4) were added to the culture to examine their capability to restore IL-18 activity. All antibodies were added to a final concentration of 10 μg/ml. 30 minutes post incubation with antibodies, thawed CMV-reactive T-cells were added to the culture. Cells and all added solutions were prepared in full IMDM (IMDM media with 10% human serum, 1% Glutamax, 1% MEM eagle, 1% sodium pyruvate, and 1% Penicillin-Streptomycin Solution) to a final volume of 200 μl/well. Plates were incubated for 24 hours in 37° C., 5% CO2 incubator, after which the supernatant was collected for IFNγ secretion evaluation. All tests were done in triplicates and each repeated with three donors.
MEL624 cells that overexpress PD-L1 were loaded with CMV peptide pp65. […] CMV-specific T-cells were then added to the culture and IFNg secretion was measured after an overnight incubation.

MEL624 cells = assay: Killing of MEL624 melanoma cells by human TILs (IncuCyte); type: cell-based; settings: rhIL-18 50 ng/ml + rhIL-18BP 1 μg/ml, 10 μg/ml antibody, 72 hours
Protocol: MEL624 cells were co-cultured with human TILs that were previously enriched for MARTI or gp100 peptide-specific clones. rhIL-18 (R&D systems, 50 ng/ml) and rhIL-18BP (R&D systems, 1 μg/ml) were added to the co-culture for 30 minutes to allow the formation of IL-18:IL-18BP complex prior to treatment with 10 μg/ml ADI-71739 or isotype control. The co-culture was monitored for 72 hours using an IncuCyte live cell imaging instrument. […] In the presence of the isotype control antibody (black), IL-18BP abrogated the effects of IL-18, while the anti-IL-18BP antibody (turquoise) was able to completely restore these effects.

endogenous IL-18BP = molecular target: T3, endogenous IL-18BP (Homo sapiens, UniProt O95998); assay: MEL624:TIL co-culture with endogenous IL-18BP levels, IFNg release; type: cell-based; settings: IL-18 3.7 ng/ml, 5 μg/ml antibody, 18 hours, vs isotype
T3 construct: endogenous in cells; host or cells: MEL624 cells co-cultured with human TILs
T3 sequence (O95998 31-194): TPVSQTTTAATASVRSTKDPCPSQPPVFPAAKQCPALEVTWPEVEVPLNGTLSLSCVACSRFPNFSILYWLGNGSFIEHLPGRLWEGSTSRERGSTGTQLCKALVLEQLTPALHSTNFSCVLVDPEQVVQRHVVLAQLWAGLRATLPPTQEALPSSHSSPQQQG
Protocol: A. Schematic representation of assay setup. MEL624 cells were co-cultured with human TILs that were previously enriched for MARTI or gp100 peptide-specific clones. IL-18 (3.7 ng/ml) was added to the co-culture along with 5 μg/ml ADI-71739 or isotype control. The co-culture was set for 18 hours following which IFNg levels were measured in supernatants. B. IFNg levels were increased in co-cultures treated with ADI-71739 (turquoise) as compared with isotype-treated samples (black). Representative examples from two TIL donors are shown.

[3] = molecular target: T2, recombinant human IL18-BP; assay: MEL624:TIL assay, IFNγ secretion; type: cell-based; settings: rhIL-18 30 ng/ml + rhIL-18BP 1 μg/ml, 24 h, vs isotype control
Protocol: Human MEL624 cells were thawed and grown in DMEM with 10% FBS, 1% Glutamax, 1% Penicillin-Streptomycin Solution and 1% HEPES buffer. The cells were then seeded at 75 k cells/well in a 96 well plate in the assay medium (IMDM with 10% human serum, 1% Glutamax, 1% MEM eagle, 1% Sodium Pyruvate and 1% Penicillin-Streptomycin Solution) and incubated 1 hour in 37° C., 5% CO2 incubator before co-culture with human tumor infiltrating lymphocytes that were previously expanded using known melanoma antigens (TILs). Human TILs were thawed in full TIL media and 75 k cells/well were co-cultured with the MEL624 cells to create an effector:target ratio of 1:1. The co-cultured cells were then treated with rhIL-18 (30 ng/ml) and rhIL-18BP (1 μg/ml) for 30 min in 37° C., 5% CO2 incubator to allow IL-18:IL-18BP complex formation. After 30 minutes, anti-human IL-18BP mAb (ADI-71722, dose titration, 30 μg/ml-0.01 μg/ml, dilution factor of 1:3) or relevant isotype control (hIgG1 30 μg/ml) were added to the co-culture to examine its capability to restore IL-18 activity. Cells and all added solutions were prepared in full assay medium to a final volume of 200 μl/well. Plates were incubated for 24 hours in 37° C., 5% CO2 incubator, after which the supernatant was collected for cytokine secretion evaluation. […]
Where applicable, the EC50 value was calculated using GraphPad Prism software.

human whole blood = assay: Whole blood loop assay (ID.Flow); type: cell-based; settings: ex vivo whole blood loop, six healthy volunteers, 24 hr
Protocol: Flow, an ex vivo system that mimics the human blood circulation. Fresh whole blood was taken from six healthy volunteers and immediately transferred to a whole blood loop system. The test items were administered, and the blood was set to circulate at 37° C. to prevent clotting. Blood samples collected at the 24 hr time point were analyzed for hematology and flow cytometry parameters and then processed to plasma for cytokine analysis. The anti-CD52 antibody Alemtuzumab was included as a reference antibody with manageable cytokine release in the clinic.

IL18-BPa: most abundant human IL18-BP isoform, isoform a
Kd (IL18): ~400 pM

IL-15: IL15 given as single dose of 0.5 μg or 1.5 μg, or mixed with IL15R [reference compound]
Spleen size [1]: larger than controls

B1: ADI-71739: anti-IL18-BP antibody, VH SEQ ID NO: 154, VL SEQ ID NO: 159 (FIG. 2K), 66716 lineage (antibody, V domains shown)
VH: QLQLQESGPGLVKPSETLSLTCTVSGGSISSPDYPWGWIRQPPGKGLEWIGSIYYQGATYYNPSLKSRVTISVDTSKNQFSLKLSSVTAADTAVYYCARGPYRQLFDYWGQGTLVTVSS
VL: DIQMTQSPSSVSASVGDRVTITCRASQGISSWLAWYQQKPGKAPKLLIYAASSLQSGVPSRFSGSGSGTDFTLTISSLQPEDFATYYCQQGSVFPYTFGGGTKVEIK
IFNγ secretion by CMV-reactive T-cells [2]: increase IFNγ secretion by the T cells
Killing of melanoma cells by tumor infiltrating lymphocytes (MEL624 cells): increased killing of melanoma cells by tumor infiltrating lymphocytes
IFNg release by tumor infiltrating lymphocytes (endogenous IL-18BP): increased IFNg release by tumor infiltrating lymphocytes
IFNγ secretion from TILs [3]: increase IFNγ secretion from TILs compared to isotype control

B2: ADI-71722: anti-IL18-BP antibody, VH SEQ ID NO: 84, VL SEQ ID NO: 89 (FIG. 2D), 66670 lineage (antibody, V domains shown)
VH: QVQLVQSGAEVKKPGSSVKVSCKASGGTFSEYPISWVRQAPGQGLEWMGGIIPGAGTAIYAQKFQGRVTITADESTSTAYMELSSLRSEDTAVYYCARGRHFHETWGQGTLVTVSS
VL: DIQMTQSPSSVSASVGDRVTITCRASQGISSWLAWYQQKPGKAPKLLIYAASSLQSGVPSRFSGSGSGTDFTLTISSLQPEDFATYYCQQVYRFPWTFGGGTKVEIK
IFNγ secretion by CMV-reactive T-cells [2]: fully restore IFNγ secretion

B3: ADI-71709: anti-IL18-BP antibody, VH SEQ ID NO: 54, VL SEQ ID NO: 59 (FIG. 2A), 66650 lineage (antibody, V domains shown)
VH: QVQLVQSGAEVKKPGASVKVSCEASGYTFDIYAVHWVRQAPGQRLEWMGWIHAGTGATKYSQKFQGRVTITRDTSASTAYMELSSLRSEDTAVYYCARGLGEVGPTGTSWFDPWGQGTLVTVSS
VL: DIQMTQSPSTLSASVGDRVTITCRASQSISSWLAWYQQKPGKAPKLLIYEASSLESGVPLRFSGSGSGTEFTLTISSLQPDDFATYYCQQYRQSPFTFGGGTKVEIK
Signs of systemic immune activation (human whole blood): did not show signs of systemic immune activation
